As usually defined, the Kd is the constant that tells how readily two partners part at equilibrium. Higher therefore signals lower affinity.

One test concerns the target Nb14-Fc (camel). Description: SPR.
The target of another test is Nb32-Fc (camel). Description: SPR. On the technique in general: In SPR one partner is held on a chip, and binding of the other changes the refractive index at the surface.

B1: HSV-2 gD (aa1-275) with C-terminal His tag (domain or fragment)
chain: KYALADPSLKMADPNRFRGKNLPVLDQLTDPPGVKRVYHIQPSLEDPFQPPSIPITVYYAVLERACRSVLLHAPSEAPQIVRGASDEARKHTYNLTIAWYRMGDNCAIPITVMEYTECPYNKSLGVCPIRTQPRWSYYDSFSAVSEDNLGFLMHAPAFETAGTYLRLVKINDWTEITQFILEHRARASCKYALPLRIPPAACLTSKAYQQGVTVDSIGMLPRFIPENQRTVALYSLKIAGWHGPKPPYTSTLLPPELSDTTNATQPELVPEDPED
In the case of B1, the Kd with Nb14-Fc turned out to be 0.0831 nM; with Nb32-Fc, 0.0434 nM.

B2: HSV-1 gD (aa1-275) with C-terminal His tag (domain or fragment)
chain: KYALADASLKMADPNRFRGKDLPVLDQLTDPPGVRRVYHIQAGLPDPFQPPSLPITVYYAVLERACRSVLLNAPSEAPQIVRGASEDVRKQPYNLTIAWFRMGGNCAIPITVMEYTECSYNKSLGACPIRTQPRWNYYDSFSAVSEDNLGFLMHAPAFETAGTYLRLVKINDWTEITQFILEHRAKGSCKYALPLRIPPSACLSPQAYQQGVTVDSIGMLPRFIPENQRTVAVYSLKIAGWHGPKAPYTSTLLPPELSETPNATQPELAPEDPED
For the molecule B2, the Kd in the test with Nb14-Fc is 1.14 nM; with Nb32-Fc it was 0.0367 nM.

The record behind these values is PMC12055985 (Nature Communications, 2025).
